First the molecules themselves.
T1: human LRIG1 extracellular domain fused to a linker-spaced 6-histidine tag, LRIG1-ECD-His (R&D systems, … (human, UniProt Q96JA1 35-794))
T1 construct: Bought protein; also called human LRIG1-His; hLRIG1-His; not shown: linker-spaced 6-histidine tag
T1 sequence: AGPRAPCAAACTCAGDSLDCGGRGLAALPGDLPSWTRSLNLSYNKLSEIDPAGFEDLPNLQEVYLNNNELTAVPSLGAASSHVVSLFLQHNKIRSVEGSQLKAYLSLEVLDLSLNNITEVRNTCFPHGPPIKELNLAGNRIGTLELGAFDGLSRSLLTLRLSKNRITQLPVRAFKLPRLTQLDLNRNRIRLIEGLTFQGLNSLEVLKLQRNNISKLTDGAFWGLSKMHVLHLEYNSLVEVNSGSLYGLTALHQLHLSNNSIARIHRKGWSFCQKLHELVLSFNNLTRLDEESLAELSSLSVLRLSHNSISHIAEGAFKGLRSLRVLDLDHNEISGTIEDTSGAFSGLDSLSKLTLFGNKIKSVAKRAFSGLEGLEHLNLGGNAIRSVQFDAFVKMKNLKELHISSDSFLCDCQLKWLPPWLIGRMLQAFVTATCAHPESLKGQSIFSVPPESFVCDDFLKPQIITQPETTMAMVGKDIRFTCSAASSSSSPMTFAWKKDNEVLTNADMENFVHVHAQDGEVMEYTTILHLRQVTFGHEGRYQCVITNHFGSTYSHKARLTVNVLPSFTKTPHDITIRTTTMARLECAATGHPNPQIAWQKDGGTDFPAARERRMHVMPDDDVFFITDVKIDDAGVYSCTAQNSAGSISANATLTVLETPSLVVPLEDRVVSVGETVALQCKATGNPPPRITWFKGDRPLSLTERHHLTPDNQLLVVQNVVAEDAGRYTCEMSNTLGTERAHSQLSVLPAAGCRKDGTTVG

T2: hLRIG1 Peptide 71 (human)
T2 construct: 20 amino acid peptide of the LRIG1 peptide library
T2 peptide: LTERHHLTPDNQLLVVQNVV

T3: hLRIG1 Peptide 70 (human)
T3 construct: 20 amino acid peptide of the LRIG1 peptide library
T3 peptide: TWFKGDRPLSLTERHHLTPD

B1: 802.3E6.2H9 (antibody, V domains shown)
VH: QVQKQQPGAELVMPGASVKLSCKASGYTFTSYWMHWVMQRPGQGLEWIGDIDPSDSYTNYNQQFKGKATLTVDISSSSAYMQLSSLTFEDSAVYYCARARVDFDYWGRGTTLTVSS
VL: EIVLTQSPALLAASPGDKVTITCSVSSSISSSTLHWYQQKSGTSPKPWIYGTSNLASGVPVRFSGSGSGTSYSLTISSMEAEDAATYYCQQWSGYPLTFGAGTKLELK
notes: Mouse hybridoma monoclonal
B2: 802.4B6.2F6 (antibody, V domains shown)
VH: QVQLQQSGPELVKPGASVKLSCKASGYTFTSYDINWVKQRPGQGLEWIGWIYPRDGTTKYNEKFKGKATLTVDTSSSTAYMEIHSLTSEDSAVYFCAREDYGSSFHNWGQGTTLTVSS
VL: NIVMTQSPKSMSMSVGERVTLSCKASEDVDTYVSWYQQKPNQSPKLLIYGASNRYTGVPDRFTGSGSATDFTLTISSVQAEDLADYYCGQSYSYPWTFGGGTKLEIK
notes: Mouse hybridoma monoclonal
B3: 802.3B10.2C10 (antibody, V domains shown)
VH: DVQLQESGPGLVKPSLSLSLTCTVTGYSITSGYDWHWIRHFPGNILEWMGYISYSGYTNYNPSLKSRISITHDTSKNHFFLKLNSVTTEDTATYYCARDSNWYFDVWGAGTTVTVSS
VL: B2 VL with S14L, T20I, S22N, D28N, N41E, A80G, Y92H, S93N, W96Y, G100S
notes: Mouse hybridoma monoclonal
B4: 802.1H3.2A4 (antibody, V domains shown)
VH: QVQLQQPGDELVKPGASVKLSCKASGYTFTSFWIHWVKQRPGQGLEWIGNIYPGSSSANYNEKFKSKATLTVDTSSSTAYMQLSSLTSDDSAVYYCARSSYRYSYYSWGQGTTLTVSS
VL: DVVMTQTPLSLPVSLGDQASISCRSSQSIVHSNGNTFLEWYLQKPGQSPNLLIYKVSNRFSGVPDRFSGSGSGTDFTLKISRVEAEDLGVYYCFQGSHVPLSFGAGTKLELK
notes: Mouse hybridoma monoclonal
B5: 802.4B6.2E11 (antibody, V domains shown)
VH: B4 VH with G8D, D9T, K23R, F32Y, H35N, S55T, A58T, T74P, A97S, S104T
VL: B4 VL with H31Q, N35I, F37Y, Q43K, F60L, E86D, S102T
notes: Mouse hybridoma monoclonal
B6: 802.2B7.2F9 (antibody, V domains shown)
VH: EVQLVESGGGLAKPGGSLKLSCAASGFTFSASAMSWVRQTPEKRLEWVATISDGGSYTYYPDNVKGRFTISRDNAKSNLYLQMSHLKSEDTAMYYCAGGVSTVINFDYWGQGTTLTVSS
VL: B4 VL with A19V, F37Y, N50K, S102T, A105G
notes: Mouse hybridoma monoclonal
B7: 802.4H12.2A9 (antibody, V domains shown)
VH: EVQLVESGGGLVKPGGSLKLSCAASGFTFSSYTMSWVRQTPEKTLEWVATISDGGRYTYYPDNVKGRFTISRDNANNNLYLQMSHLKSEDTAMYYCARGWLLRNFDFWGQGTTLTVSS
VL: B4 VL with F37Y, N50K, S102T
notes: Mouse hybridoma monoclonal
B8: 802.3D5.2G4 (antibody, V domains shown)
VH: EVKLEESGGGLVQPGGSMTLSCVASGFTFSNYWVNWVRQSPEKGLEWVAQIRLKSENYPTHYAESVKGRFTVSRDDSKSSVYLQMNNLRAEDTGIYYCTGRGYSNYAWGQGTTLTVSS
VL: B4 VL with V2I, F37Y, N50K, V99F, L101W, S102T, A105G, L111I
notes: Mouse hybridoma monoclonal
B9: 802.4C12.3C5 (antibody, V domains shown)
VH: QVQLQQSGGELMKPGASVKLSCKATGYTFTGYWIEWVKQRPGHGLEWIGEILPGSGRTYYNEKFKGKATFTADTSSNTAYMQLSSLTTEDSAIYYCAREIYDGHYEAWYAYWGQGTLVTVSA
VL: DVVMTQTPLSLSVTIGQPASISCKSSQSLLYSDGKTYLNWLQQRPGQSPKRLMYQVSKLDPGIPDRFSGSGSETDFTLEISRVEAEDLGVYYCLQGTYYPHTFGSGTKLEIK
notes: Mouse hybridoma monoclonal
B10: 802.2F11.2B6 (antibody, V domains shown)
VH: QVQLQQSGAELMKPGASVKLSCKATGYTFTGYWIEWVKQRPGHGLEWIGEILPGSGSTHYNEKFKGKATFTADTSSNTAYIQLSSLTTEDSAIYYCEREVYDNDEGAWFANWGQGTLVTVSA
VL: B9 VL with E79K
notes: Mouse hybridoma monoclonal
B11: 802.2B7.2D9 (antibody, V domains shown)
VH: QVQLKQSGPGLVQPSQSLSITCTVSGFSLTSYGVHWVRQSPGKGLEYLGVIWSGGSTDYNAAFISRLSISKDNSKSQVFFKMNSLRADDTAIYYCARNWAYYSNHYYVMDYWGQGTSVTVSS
VL: DIQMTQSPASLYAFVGETVTITCRASENIYSYLAWYHQKQGKSPQLLVYNSNSLAEGVPLRFSGSGSGTQFSLKINSLQPEDFGNYYCQHHYVTPLTFGGGTKLEMK
notes: Mouse hybridoma monoclonal
B12: 802.2F4.2C7 (antibody, V domains shown)
VH: EVQLQQSGTVLARPGASVKMSCKASGYNFINSWMHWVKQRPGQGLEWIGAFYPGNSDTRYNQKFMGKAKLTAVTSASTAYMEVSSLTNEDSAVYYCTELGGDYWGQGTTLTVSS
VL: DVVMTQTPLSLPVSLGDQASISCRSSQSLVHNDGNTYLHWFLQKPGQSPKLLIHKVSNRFSGVPDRFSGSGSGTDFTLKISRVEAEDLGVYFCSQSTHVPYTFGGGTKLEIK
notes: Mouse hybridoma monoclonal
B13: 802.3E6.2F9 (antibody, V domains shown)
VH: QVQLQQSGAELMKPGASVKISCKVTGHTFSSYWIEWVKQRPGHGLEWIGEILPGKGNTEYNEKFKGKATFTADTSSNTAYMQLSSLTSEDSAVYYCARNFDVWGAGTTVTVSS
VL: B12 VL with N32R, D33N, N35H, F41Y, H54Y, G71V, A85G, L88V
notes: Mouse hybridoma monoclonal

Numbering of substitutions follows the chain as printed.

The target of one test is T1, human LRIG1 extracellular domain fused …. Nature of the test: LRIG1 ECD ELISA-positive hybridoma antibodies tested in blocking ELISA on plate-bound LRIG1-ECD-His. The procedure: Positively scoring wells were evaluated for the ability to block association of LRIG1 and VISTA. To identify LRIG1-targeted antibodies with the ability to block the interaction of LRIG1 and VISTA, purified LRIG1 and VISTA proteins were incubated in the presence of LRIG1-immunization hybridoma supernatants described above, or without antibody, and protein interaction was evaluated by ELISA. Purified human LRIG1 extracellular domain fused to a HIS tag (R&D Systems) was diluted in phosphate buffered saline (PBS) (Corning) to a concentration of 3 μg/ml and 100 μl was added to each well of a 96-well ELISA plate (Thermo Fisher, 44-2404-21). After incubating the plate at 4° C. overnight, the plate was washed three times with 300 μl of PBS with 0.05% TWEEN (VWR) (PBST) per well. The plate was then blocked for an hour with 200 μl of 2% bovine serum albumin (BSA) (Sigma) in PBST per well at room temperature with gentle rocking. Thereafter, the 2% BSA in PBST was removed and 50 μl of hybridoma supernatant diluted to 3.3 ug/mL was added to the wells. The plate was incubated for 10 minutes at room temperature with gentle rocking. Afterwards, 100 ul of 50 nM oligomerized VISTA in 100 ul PBS buffer was added per well. VISTA oligomerization was performed by Klickmer formation. Briefly, 5 nM Klickmer (Immudex) was incubated with 200 nM hVISTA-Fc-Avi-Biotin in PBS and incubated for one hour. The plate was incubated for an hour at room temperature with gentle rocking. Thereafter, the plate was washed three times with 300 μl of PBST per well, and 100 μl of avidin-HRP (1:1000) (Jackson ImmunoResearch) was then added to each well and the plate was incubated at room temperature for 30 minutes with gentle rocking. Thereafter, the plate was washed three times with 300 μl of PBST per well. 100 μl of TMB substrate (Fisher Scientific, 34029) was then added to each well. The reaction was stopped with 50 μl of 1 M HCl (VWR) per well. The plate was read using a spectrophotometer (Molecular Devices) at absorbance of 450 nm. Percent blockade of LRIG1-VISTA interaction was calculated as the fraction of signal obtained in each experimental samples of the no antibody sample less background signal.
On the technique in general: In an ELISA, binding on a coated surface is turned into a signal by an enzyme label.
Regarding B1, the binding result was “binds”.

As for B2, the binding result is on record as “binds”.

Consider B3, for which the binding result is recorded as “binds”.

As to B4, the binding result is given as “binds”.

Regarding B5, the binding result is given as “binds”.

Consider B6, for which the binding result was “binds”.

Regarding B7, the binding result is on record as “binds”.

As for B8, the binding result is “binds”.

With B9, the binding result was “binds”.

For B10, the binding result is given as “binds”.

Turning to B11, the binding result was “binds”.

Turning to B12, the binding result is given as “binds”.

As to B13, the binding result is given as “binds”.

For a further test, the target named is T2, hLRIG1 Peptide 71. Nature of the test: peptide ELISA of Example 2, as told in Example 3. Here is the method:
(§1) To identify the epitopes to which LRIG1 antibodies with and without VISTA-LRIG1 blocking activity bound, a library of 20 amino acid peptides representing portions of LRIG1 was produced, and the ability to bind LRIG1 antibodies was evaluated by ELISA. At least 2 ug/ml of hLRIG1 peptide in 50 μl of PBS or 0.1 ug/ml of full-length human LRIG1 protein (R&D Systems) in 100 μl of PBS was added to the wells of a 96-well ELISA plate (Thermo Fisher, 44-2404-21). After incubating the plate at 4° C. overnight, the plate was washed three times with 300 μl of PBST per well. The plate was then blocked for an hour with 200 μl of 2% BSA in PBST per well at room temperature with gentle rocking. Thereafter, the 2% BSA in PBST was removed and 100 μl of 0.1 ug/ml of antibody in 2% BSA in PBST was added to the wells. The plate was incubated for an hour at room temperature with gentle rocking and then washed three times with 300 μl of PBST per well. Afterwards, 100 μl of anti-mouse IgG-HRP (1:4000) (Jackson ImmunoResearch) or anti-rat IgG HRP (1:4000) (Jackson ImmunoResearch) was added to the wells. The plate was incubated for 30 minutes at room temperature with gentle rocking and then washed three times with 300 μl of PBST per well. 100 μl of TMB substrate (Fisher Scientific, 34029) was then added to each well. The reaction was stopped with 50 μl of 1 M HCl (VWR) per well. The plate was read using a plate reader (Molecular Devices) at absorbance of 450 nm, and signal greater than 0.25 OD was considered evidence of peptide binding.
Take B6: the binding result is “binds”.

Turning to B7, the binding result is listed as “binds”.

Another test addresses T3, hLRIG1 Peptide 70. Nature of the test: peptide ELISA of Example 2, as told in Example 3. The procedure:
as §1
Regarding B6, the binding result is listed as “binds”.

For the molecule B7, the binding result was “binds”.

(Values after patent US20220281973A1 (TRUEBINDING, published 2022).)
